The DeepSol protein solubility set

Test: soluble on expression in E. coli; label from the status in PepcDB or PDB records

| Sequence | soluble on expression in E. coli |
| --- | --- |
| MTMTLHTKASGMALLHQIQGNELEPLNRPQLKIPLERPLGEVYLDSSKPAVYNYPEGAAYEFNAAAAANAQVYGQTGLPYGPGSEAAAFGSNGLGGFPPLNSVSPSPLMLLHPPPQLSPFLQPHGQQVPYYLENEPSGYTVREAGPPAFYRPNSDNRRQGGRERLASTNDKGSMAMESAKETRYCAVCNDYASGYHYGVWSCEGCKAFFKRSIQGHNDYMCPATNQCTIDKNRRKSCQACRLRKCYEVGMMKGGIRKDRRGGRMLKHKRQRDDGEGRGEVGSAGDMRAANLWPSPLMIKRSKKNSLALSLTADQMVSALLDAEPPILYSEYDPTRPFSEASMMGLLTNLADRELVHMINWAKRVPGFVDLTLHDQVHLLECAWLEILMIGLVWRSMEHPVKLLFAPNLLLDRNQGKCVEGMVEIFDMLLATSSRFRMMNLQGEEFVCLKSIILLNSGVYTFLSSTLKSLEEKDHIHRVLDKITDTLIHLMAKAGLTLQQQHQRLAQLLLILSHIRHMSNKGMEHLYSMKCKNVVPLYDLLLEMLDAHRLHAPTSRGGASVEETDQSHLATAGSTSSHSLQKYYITGEAEGFPATV | soluble |
| MSLVPARPNRPEADREALWKIVHDRCEFGYRRTGAYAPCTFVDEQSGTALYKADFDPYQFLLIPLARITGIEDPALRESAGRNYLYDAWAARFLVTARLNNSLPESDVVLTINPKNARTQDQLHIHISCSSPTTSAALRNVDTSEYVGWKQLPIDLGGRRFQGLAVDTKAFESRNLFRDIYLKVTADGKKMENASIAVANVAQDQFLLLLAEGTEDQPVAAETLQDHDCSITKSEGHHHHHH | soluble |
| MGSDKIHHHHHHAQNQDCAFFFPNQEGEQITRNCYTADGKLTNILVYRVDQAYEYPSGMEVVANYTFADAAGKTLNSGQMVARCSDGNFSMSMGDVATFPTALNMMNADVYMMGDLMNYPDAFSNPMNPGDDDEFDDGTLRLYQKGNKNNRAEISVFDREFVTTETVNTPAGAFYCTKVKYEMNIWTPKETIKGYGYEWYAPNIGIVRSEQYNNKKELQSYSVLERIKK | not soluble |
| MLTSEQVKAMIEGVAKCEHIEVEGDGHHFFAVIVSSEFEGKARLARHRLIKDGLKAQLESNELHALSISVAATPAEWAAKAQ | not soluble |
| MSLTQVHFTLKSEEIQSIIEYSVKDDVSKNILTTVFNQLMENQRTEYIQAKEYERTENRQSQRNGYYERSFTTRVGTLELKVPRTRDGHFSPTVFERYQRNEKALMASMLEMYVSGVSTRKVSKIVEELCGKSVSKSFVSSLTEQLEPMVNEWQNRLLSEKNYPYLMTDVLYIKVREENRVLSKSCHIAIGITKDGDREIIGFMIQSGESEETWTTFFEYLKERGLQGTELVISDAHKGLVSAIRKSFTNVSWQRCQVHFLRNIFTTIPKKNSKSFREAVKGIFKFTDINLAREAKNRLIHDYIDQPKYSKACASLDDGFEDAFQYTVQGNSHNRLKSTNLIERLNQEVRRREKIIRIFPNQTSANRLIGAVLMDLHDEWIYSSRKYINFDKEGHHHHHH | soluble |
| MSLAFDETRLPDDVERGAQGGPRFKTTVITLSSGFERRNSDWAQTRGEWDVGYGMQDATDLEDVIAFFYARNGRARGFRFKDWTDYVLSRQAIGTTDGSNATFQLFKRYTSGSTSFDRILSKIVTATTQVWVNNVEAPEGGASTSFAIDTTTGMITLGSSLAAQSGTTVEAACQFDVPVRFGSDALDITAEWADAVGAPNIPIVEIRVEGHHHHHH | soluble |
| MDIKVIREKLTLTTSITSESVAEYEHDVDECCRLLEHKLELEMEKKLQLSNRIDVVQSQVTELWDRVDKARRRESDISCRVTAWAQHLSEMMNEVKLKKAKMGTTMEISATLSAEIQESLDLLAEKRVIVQRMREEIDYRRHLHKQQLKDLKLDCDREEEKCEYWNDKSAEIEKVVEMLKEQRKSLGERVEEEKRMEQEQKKMLEELEMLLKKTGKKRQILDENANLVASFSSLTEESS | not soluble |
| MAEQSDKDVKYYTLEEIQKHKDSKSTWVILHHKVYDLTKFLEEHPGGEEVLREQAGGDATENFEDVGHSTDARELSKTYIIGELHPDDRSKIAKPSETL | soluble |
| MAKGTIKTNTPPPAPVVGPPGKSAKYRVKHTITVMSGKGGVGKSTVAVNLAVSLAKKGLKVGLIDADINGPDDPKLLGVEDLKLYADDDGIIPAETKYGVKVVSMGFLLPSQDTPVIWRGSLMHKAIQQFLEDVSWKDTDYVVLDMPPGTGDVALSVAQLVPESNGVVIVVTPQDVALLDAKKAINFARQLKLPIFGIIENMSGFVCPHCGNVTYIFKEGGGEKSAKEYNVPFLGKIPLVPEIADNGDKGIPAVEINDTIKSIFNDIADKILKQILGENVKTEALEHHHHHH | not soluble |
| MFHGIPATPGIGAPGNKPELYEEVKLYKNAREREKYDNMAELFAVVKTMQALEKAYIKDCVSPSEYTAACSRLLVQYKAAFRQVQGSEISSIDEFCRKFRLDCPLAMERIKEDRPITIKDDKGNLNRCIADVVSLFITVMDKLRLEIRAMDEIQPDLRELMETMHRMSHLPPDFEGRQTVSQWLQTLSGMSASDELDDSQVRQMLFDLESAYNAFNRFLHALEHHHHHH | not soluble |
| MSLIDFHFHAPVKEFLDFLGEFGEPAIKYFNAKVEVKGLKETLDYYESFGIKRFVVLPIDSTTFLGRRIPNQVINLDDRIVKFISVDPSKPNADEELKRSIKEFEPVGVKLHPQLQGFHPLDERALKIYEIIDNHGLIVVFHTGTSGIGAGVKSSIRLDYGRPIYFDEIAVRFQNMKIILAHFGWPWTEEAIAIALHKPNVYLDLSGWAPRYIPQVIWSNAKRLSDKLLFGSDFPLIRPERWLEEFKSVNLSQDIKDKILKHNAEKLVKKSEGHHHHHH | not soluble |
| SFDRALKPFLQSCHLRMLTDPVDQCVAYHLGRVRESLPELQIEIIADYEVHPNRRPKILAQTAAHVAGAAYYYQRQDVEADPWGNQRISGVCIHPRFGGWFAIRGVVLLPGIEVPDLPPRKPHDCVPTRADRIALLEGFNFHWRDWTYRDAVTPQERYSEEQKAYFSTPPAQRLALLGLAQPSEKPSSPSPDLPFTTPAPKKPGNPSRARSWLSPRVSPPASPGP | soluble |
| MKKSNIKTLEQFKDQNYGKKGTAKRDSLEMGYDTFKIGALIQEARIEKGMTQEELAIKCGTTKSYISRIENNIKEVRISTLQKIVELGFGGQLQLSIKF | not soluble |
| MENKEKIFNAQHPLSNVNARSITYRSGGKSPKSPRRVDEENKTDEELGDALGISHRCDECDEMMKFETWVERQDAILECGHGYCKKCIPNIKKDAHTLTKCPVVAVKCRIPNWYQTGQAAKPSHRKSEAARKEYSTKAKLWNFEYKGRPLVVSLRRDATYGDLETSLSMLLNIDLKTNMILIHLPHSYNGADVNYFMKADDSLTNGPYEKDTKLSHLRHPKIAALSLEVTEKKTPSSETPSKENPKSPGPLDSNK | not soluble |
| KLTKSDLDILNSMKNVVDGIARMYGEHTEVVLHSLDAEAPEIIKIANGHVTERSEGAPITNLARMKLREGKDVSDSYLTKTSNGKTLHSITTIVRNPKNKPIGLLCINVDMDAPMQAFLKAMLPQQHTECCVGGAR | not soluble |
| MVPTPKPVVDRMLELADVDETDVLYDLGSGDGRIVIRAARTHGARGVGIEIDPDLVKKARKNAKEAGVADLVEFRQGDLFEADISEATVVTLYLLPSVNQKLRPILFEQLSPGTPVVSHDFDMGRWAPDRTVDLEGDTVYRWTIPLEHHHHHH | not soluble |
| MGSSHHHHHHSSGRENLYFQGHMKPDAHQVKQFLLNLQDTICQQLTAVDGAEFVEDSWQREAGGGGRSRVLRNGGVFEQAGVNFSHVHGEAMPASATAHRPELAGRSFEAMGVSLVVHPHNPYVPTSHANVRFFIAEKPGADPVWWFGGGFDLTPFYGFEEDAIHWHRTARDLCLPFGEDVYPRYKKWCDEYFYLKHRNEQRGIGGLFFDDLNTPDFDRCFAFMQAVGKGYTDAYLPIVERRKAMAYGERERNFQLYRRGRYVEFNLVWDRGTLFGLQTGGRTESILMSMPPLVRWEYDYQPKDGSPEAALSEFIKVRDWV | soluble |
| MIRSATKEDGQAIARLVLVILKDMELPILEEVSEEQMIDLLAEATAYPTYRYGYQRILVYEHAGEVAGIAVGYPAEDEKIIDEPLREVFKKHGLAEDVRLFIEEETLPNEWYLDTISVDERFRGMGIGSKLLDALPEVAKASGKQALGLNVDFDNPGARKLYASKGFKDVTTMTISGHLYNHMQKEV | not soluble |
| STRFLEKRHKKKKATNKERILSYKPIHAIEQENSFRSSRCSNQTVEVSAVEDSRSALVGFFESNEPSESVTLKGKRERQLLASKTLISQLKEENCRLKERLNEVKDQLELKEKIALVQQENNDLEAEVLEWKAKFYESESEKERILASRSRPKDGYEIVQESLAQQPGTTSFYDYKFRQLVHKLTRMNAIHSKHNDKEYHKCDIVNESKDRSITFELFIDEEQEEIEYVPVQLNGVSQKLPSYLQDNISFDVQNAPIFFTKIMHSLFSK | soluble |
| IEYETHFFNEVTYLVDYLKVKALMMIPKNKKDIKRIVIYLRGGKGQVGRVRAARLMQFANEYTLVIGPYYRGNNGSEGRDEFYRGDLNDVTHLIRLLNQNYPSAFIHMVGFSRGGLQGLLTFNDLPVDSYMIWGGVSDIHLMYEERVDLRGMLRRMVGHPKKDAKAYKSRDAMQFIKKDSPPILIIHGGKDIQVGIHQAYDLEKKLKSKGIYYQTYYQLDEGHVPRPPAMRDVIRYIHQWMNNVENKN | not soluble |
| GMEPTRKRKSAGGKPKGKGGWGDRKSGGWRGDHKPSKEGFGGKTRGEGFKKEGFKRDGFKKTGEGFKGKRKAGDSFAGKGERRYKDR | not soluble |
| MGHHHHHHSHMQEQVLYPLEAEVTMVTSFQDADPMGVIYHGNFFRYFEEARRVLMEKIQYGYRDMQDSGYMWPIIDTRVKYVKAIPFNHTIRITAQLTEWENRLRVDYVIYDAETNQRMCKAHTTQVAVSIEKQEMCFVSPAVFLDKVEQWHNHGSLN | soluble |
| MTEDRNFDDIAHKFAKNIYGSDKGEIRQVIVWEDLEQLLSQLDTQKVPLHVLDAGGGLAQVSQKIARLGHRVTLCDLSSEMLQLAEQDIANNGLLEQYRFVHSPVQTIQAHLDAPVDLVLFHAVMEWLAEPKPALQNLLAQVRPGGMVSVMFYNYHGLVYKNAVCGNIPHVLEDMPHRKRFKLQPQKGLLPEEVYQWIEESSFEICGKSGIRCFSDYIGNMKNMGEYQYEDLVALERKFCRQEPYLSLGRYIHVWAKKKQ | not soluble |
| GSSLASQGQNLSTVLANLTPEQQKNVLGERLYNHIVAINPAAAAKVTGMLLEMDNGEILNLLDTPGLLDAKVQEALEVLNRHMNV | soluble |
| MTAPSQVLKIRRPDDWHVHLRDGDMLKTVVPYTSEIYGRAIVMPNLASPITTVDAAIAYRQRILDAVPAGHDFTPLMTCYLTDSLDADELERGFHEGVFTAAKLYPANATTNSSHGVTSVDAIMPVLERMEKLGIPLLVHGEVTHADVDIFDREARFIDTVMEPLRQRLTALKVVFEHITTKDAAQYVRDGNDYLAATITPQHLMFNRNDMLVGGIRPHLYCLPILKRNIHQQALRELVASGFTRAFLGTDSAPHSRHRKETSCGCAGCFNAPSALGSYAAVFEEMNALAHFEAFCSLNGPQFYGLPMNTGWVELVRDEQQIPGNIALADDSLVPFLAGETVRWSVKK | not soluble |
| MGSDKIHHHHHHMLKKYLISLDKDIQRRELFFSQKNTEDFQVFSAINTMQKDWDELAAIFNIEQFKAHYFRNVTKGEIGCTLSHLSVYQKIVEDNDIAEDSYALVCEDDALFHSDFQQNLTALLSEKLEAEIILLGQSKINDFNDFDLEINYPTTFSFLCKKTGDVNYAFPYKSYFAGTVGYLIKKSAARRFIQQISQNKPFWLADDFLLFEQNFNIRNKVVRPLIVIENPVLISNLESVRGSLSNNLLKKLMKYPLKKIFAIKKNLAN | not soluble |
